This passage reports protein stability index results from the supplement of paper PMC10567573.

The chains are these.
B1: DLC1 (parent)
chain: KRSWEEHVTHWMGQPFNSDDRNTA
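Note: lentivirally expressed fusions sorted by FACS into six bins by GFP to DsRed ratio, PSI derived from sequencing read proportions per bin multiplied by bin number.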

Variants of B1 are the subject of this data set. In words: protein stability index of a GFP-peptide fusion (GPS, HEK-293T) (PSI 1-6); higher = more stable. Conditions: c terminus: a fixed tail appended.
KRSWEEHVTHWMGQPFNSDDCNTA [R21C]: the protein stability index stood at 2.85.

On to KRSWEEHVTHWMGQPFNSDDPNTA [R21P], for which the protein stability index was 2.6.

As to KRSWEEHVTHWMGQPFNSDDQNTA [R21Q], the protein stability index was determined as 3.07.

KRSWEEHVTHWMGQPFNSDDGNTA [R21G]: the protein stability index stood at 3.17.

KRSWEEHVTHWMGQPFNSDDDNTA [R21D]: the protein stability index was found to be 2.89.

With KRSWEEHVTHWMGQPFNSDDWNTA [R21W], the protein stability index turned out to be 2.92.

For the variant KRSWEEHVTHWMGQPFNSDDYNTA [R21Y], the protein stability index stood at 2.55.

Turning to KRSWEEHVTHWMGQPFNSDDLNTA [R21L], the protein stability index was found to be 3.36.

Turning to KRSWEEHVTHWMGQPFNSDDTNTA [R21T], the protein stability index was 3.08.

KRSWEEHVTHWMGQPFNSDDFNTA [R21F]: the protein stability index was 1.95.

As to KRSWEEHVTHWMGQPFNSDDVNTA [R21V], the protein stability index amounted to 3.31.

As for KRSWEEHVTHWMGQPFNSDDNNTA [R21N], the protein stability index was determined as 3.91.

KRSWEEHVTHWMGQPFNSDDENTA [R21E]: the protein stability index stood at 2.99.

Take KRSWEEHVTHWMGQPFNSDDINTA [R21I]: the protein stability index came out at 2.61.

Turning to KRSWEEHVTHWMGQPFNSDDSNTA [R21S], the protein stability index came to 2.9.

Regarding KRSWEEHVTHWMGQPFNSDDANTA [R21A], the protein stability index turned out to be 2.64.

Consider KRSWEEHVTHWMGQPFNSDDMNTA [R21M], for which the protein stability index is 2.27.

For KRSWEEHVTHWMGQPFNSDDHNTA [R21H], the protein stability index was found to be 2.47.

With KRSWEEHVTHWMGQPFNSDDKNTA [R21K], the protein stability index amounted to 3.32.

Take KRSWEEHVTHWMGQPFNSDDRNTN [A24N]: the protein stability index worked out at 2.23.

As to KRSWEEHVTHWMGQPFNSDDRNTV [A24V], the protein stability index amounted to 3.28.

Consider KRSWEEHVTHWMGQPFNSDDRNTP [A24P], for which the protein stability index amounted to 2.92.

For the variant KRSWEEHVTHWMGQPFNSDDRNTS [A24S], the protein stability index is 2.67.

Take KRSWEEHVTHWMGQPFNSDDRNTW [A24W]: the protein stability index came to 2.6.

Turning to KRSWEEHVTHWMGQPFNSDDRNTF [A24F], the protein stability index was 2.37.

With KRSWEEHVTHWMGQPFNSDDRNTK [A24K], the protein stability index stood at 3.54.

On to KRSWEEHVTHWMGQPFNSDDRNTM [A24M], for which the protein stability index is 2.09.

As for KRSWEEHVTHWMGQPFNSDDRNTH [A24H], the protein stability index is 2.9.

Turning to KRSWEEHVTHWMGQPFNSDDRNTQ [A24Q], the protein stability index was 3.18.

Consider KRSWEEHVTHWMGQPFNSDDRNTC [A24C], for which the protein stability index amounted to 2.32.

Turning to KRSWEEHVTHWMGQPFNSDDRNTE [A24E], the protein stability index came out at 3.59.

Turning to KRSWEEHVTHWMGQPFNSDDRNTR [A24R], the protein stability index worked out at 2.86.

On to KRSWEEHVTHWMGQPFNSDDRNTL [A24L], for which the protein stability index was found to be 2.89.

In the case of KRSWEEHVTHWMGQPFNSDDRNTT [A24T], the protein stability index was determined as 2.43.

In the case of KRSWEEHVTHWMGQPFNSDDRNTG [A24G], the protein stability index was determined as 2.97.

With KRSWEEHVTHWMGQPFNSDDRNTY [A24Y], the protein stability index turned out to be 1.72.

Consider KRSWEEHVTHWMGQPFNSDDRNTD [A24D], for which the protein stability index was 2.82.

As for KRSWEEHVTHWMGQPFNSDDRNTI [A24I], the protein stability index was 2.81.

KRSWEEHVTHWMGQPRNSDDRNTA [F16R]: the protein stability index stood at 2.27.

Turning to KRSWEEHVTHWMGQPLNSDDRNTA [F16L], the protein stability index is 3.55.

Regarding KRSWEEHVTHWMGQPSNSDDRNTA [F16S], the protein stability index came out at 3.07.

KRSWEEHVTHWMGQPNNSDDRNTA [F16N]: the protein stability index stood at 3.62.

Take KRSWEEHVTHWMGQPPNSDDRNTA [F16P]: the protein stability index worked out at 2.68.

Regarding KRSWEEHVTHWMGQPKNSDDRNTA [F16K], the protein stability index is 2.97.

Consider KRSWEEHVTHWMGQPTNSDDRNTA [F16T], for which the protein stability index is 2.37.

With KRSWEEHVTHWMGQPVNSDDRNTA [F16V], the protein stability index is 3.34.

KRSWEEHVTHWMGQPWNSDDRNTA [F16W]: the protein stability index turned out to be 2.35.

On to KRSWEEHVTHWMGQPYNSDDRNTA [F16Y], for which the protein stability index came to 2.69.

With KRSWEEHVTHWMGQPMNSDDRNTA [F16M], the protein stability index worked out at 2.94.

Consider KRSWEEHVTHWMGQPQNSDDRNTA [F16Q], for which the protein stability index was determined as 2.41.

In the case of KRSWEEHVTHWMGQPFNSDDRNSA [T23S], the protein stability index stood at 2.26.

On to KRSWEEHVTHWMGQPFNSDDRNEA [T23E], for which the protein stability index amounted to 2.73.

KRSWEEHVTHWMGQPFNSDDRNRA [T23R]: the protein stability index came out at 2.65.

As to KRSWEEHVTHWMGQPFNSDDRNPA [T23P], the protein stability index was determined as 2.46.

On to KRSWEEHVTHWMGQPFNSDDRNLA [T23L], for which the protein stability index came out at 2.08.

Consider KRSWEEHVTHWMGQPFNSDDRNMA [T23M], for which the protein stability index stood at 1.73.

In the case of KRSWEEHVTHWMGQPFNSDDRNGA [T23G], the protein stability index was determined as 2.69.

With KRSWEEHVTHWMGQPFNSDDRNYA [T23Y], the protein stability index amounted to 2.16.

On to KRSWEEHVTHWMGQPFNSDDRNDA [T23D], for which the protein stability index was determined as 3.26.

On to KRSWEEHVTHWMGQPFNSDDRNNA [T23N], for which the protein stability index is 2.74.

Regarding KRSWEEHVTHWMGQPFNSDDRNFA [T23F], the protein stability index is 2.13.

With KRSWEEHVTHWMGQPFNSDDRNCA [T23C], the protein stability index was 3.51.

KRSWEEHVTHWMGQPFNSDDRNIA [T23I]: the protein stability index is 2.35.

Consider KRSWEEHVTHWMGQPFNSDDRNWA [T23W], for which the protein stability index was 1.79.

Consider KRSWEEHVTHWMGQPFNSDDRNQA [T23Q], for which the protein stability index was found to be 3.27.

KRSWEEHVTHWMGQPFNSDDRNHA [T23H]: the protein stability index came to 2.23.

As for KRSWEEHVTHWMGQPFNSDDRNAA [T23A], the protein stability index came out at 2.22.

As to KRSWEEHVTHWMGQPFNSDDRNKA [T23K], the protein stability index worked out at 2.74.

Turning to KRSWEEHVTHWMGQPFNSDDRNVA [T23V], the protein stability index worked out at 2.13.

For the variant KRSWEEHVTHWMGQPFNSVDRNTA [D19V], the protein stability index was determined as 1.97.

Regarding KRSWEEHVTHWMGQPFNSMDRNTA [D19M], the protein stability index was found to be 2.88.

Consider KRSWEEHVTHWMGQPFNSEDRNTA [D19E], for which the protein stability index was 2.76.

Take KRSWEEHVTHWMGQPFNSGDRNTA [D19G]: the protein stability index was determined as 2.25.

Consider KRSWEEHVTHWMGQPFNSTDRNTA [D19T], for which the protein stability index stood at 2.4.

On to KRSWEEHVTHWMGQPFNSSDRNTA [D19S], for which the protein stability index turned out to be 2.6.

Take KRSWEEHVTHWMGQPFNSLDRNTA [D19L]: the protein stability index amounted to 2.12.

In the case of KRSWEEHVTHWMGQPFNSRDRNTA [D19R], the protein stability index stood at 2.54.

For KRSWEEHVTHWMGQPFNSIDRNTA [D19I], the protein stability index was 3.12.

KRSWEEHVTHWMGQPFNSQDRNTA [D19Q]: the protein stability index stood at 2.65.

With KRSWEEHVTHWMGQPFNSFDRNTA [D19F], the protein stability index was 1.85.

In the case of KRSWEEHVTHWMGQPFNSADRNTA [D19A], the protein stability index came to 2.67.

In the case of KRSWEEHVTHWMGQPFNSPDRNTA [D19P], the protein stability index amounted to 2.73.

In the case of KRSWEEHVTHWMGQPFNSWDRNTA [D19W], the protein stability index was 2.64.

Turning to KRSWEEHVTHWMGQPFNSKDRNTA [D19K], the protein stability index amounted to 2.61.

As to KRSWEEHVTHWMGQPFNSHDRNTA [D19H], the protein stability index is 2.29.

In the case of KRSWEEHVTHWMGQPFNSNDRNTA [D19N], the protein stability index was found to be 2.69.

KRSWEEHVTHWMGQPFNSYDRNTA [D19Y]: the protein stability index came to 1.43.

On to KRSWEEHVTHWMGQPFHSDDRNTA [N17H], for which the protein stability index amounted to 2.73.

Consider KRSWEEHVTHWMGQPFLSDDRNTA [N17L], for which the protein stability index worked out at 2.44.

KRSWEEHVTHWMGQPFKSDDRNTA [N17K]: the protein stability index turned out to be 2.1.

Take KRSWEEHVTHWMGQPFWSDDRNTA [N17W]: the protein stability index was 2.77.

On to KRSWEEHVTHWMGQPFCSDDRNTA [N17C], for which the protein stability index was 2.23.

On to KRSWEEHVTHWMGQPFYSDDRNTA [N17Y], for which the protein stability index worked out at 2.36.

Consider KRSWEEHVTHWMGQPFFSDDRNTA [N17F], for which the protein stability index came to 2.77.
